According to the supplement of paper PMC10567573:

B1: WDFY1 (parent)
chain: FWNIKQMWDTKTLGLRQHHCRKCG

Variants of: B1
Experiment: protein stability index of a GFP-peptide fusion (GPS, HEK-293T) (PSI 1-6); higher = more stable
Conditions: c terminus: a fixed tail appended
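Note: lentivirally expressed fusions sorted by FACS into six bins by GFP to DsRed ratio, PSI derived from sequencing read proportions per bin multiplied by bin number.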

Protein stability index, by site and new letter:
Q17: W 2.02; M 1.7; L 2.53; E 2.56; Y 1.98; I 1.81
H18: M 2.27; D 2.92; A 1.84; R 2.21; Y 2.08; F 1.64; L 2.31; W 2.06; E 2.21
N3: T 1.23; Q 1.96; L 1.54; Y 2.37; M 2.23; D 2.02; R 2.13; P 2.57
F1: A 2.11; S 2.46; V 1.97; H 2.36; D 2.79; Y 2.02; W 2.16
R16: D 2.84
W8: E 2.44; Q 2.59; C 2.54; N 2.25; R 1.42
C20: T 2.52; N 2.52; F 2.41; G 1.87; H 2.69; Q 3.22; V 2.2; E 2.09; M 2.57; D 3.16
K22: F 3.26; G 1.82; D 3.4; V 1.41; Y 2.2; S 1.66; A 1.59
Q6: A 1.9; C 2.29; T 2.04; K 2.13; E 2.37; D 2.42; S 2.01; L 1.47
H19: Q 2.4; A 2.14; D 2.21; E 2.09; M 1.92; K 2.33; S 2.13; V 2.17
I4: W 3.44; A 1.89; P 2.55; N 2.13; V 2.52; K 2
G14: C 2.27; R 3.17; I 1.87; F 2.78; H 1.85; M 1.75; D 2.69
W2: R 2.82; V 2.71; H 1.43; K 2.29; E 2.53
T12: V 2.33; S 2.14; K 2; Y 2.72; H 1.86; I 1.63; N 1.84
C23: A 2.18; D 2.82; Q 2.3; Y 2.04; E 1.93; R 2.09; F 1.59
G24: M 1.85; K 2.5; N 2.09; I 2.11; H 2.13; D 2.15; A 1.84; Y 2.01
M7: Q 2.92; A 1.89; T 1.69; C 2.06; G 1.89; K 2.35; L 2.39; V 1.64; Y 2.45
D9: V 3.82; C 1.53; S 2.02; N 1.77; E 1.95; F 1.7; R 2.24; T 1.47; Q 1.5; L 1.6
L13: D 1.7; M 2; N 1.96; T 1.95; H 2.22; W 2.01; E 2.56; A 2.01
R21: Q 2.28; I 1.72; C 2.12; T 2.62; E 2.07
T10: W 2.48; G 1.89; K 3.11; F 2.52; P 2.28
K11: A 2.14; I 1.42; W 2.44; N 2.27
L15: N 2.07; M 1.79; S 2.95; C 1.75; P 1.55; D 1.56; K 2.14; I 1.75; A 2.27
K5: W 2.11; P 2.17; T 1.97; C 1.79; G 1.96; S 1.72; D 2.27; L 1.07
